Experimental data as given in patent US20240052042A1 (Novartis, published 2024).

Assays:
[1] = target: T1, hNPR1-ANP complex (human, UniProt P01160 124-151, limits assumed); assay: FRET ANP competition assay, IgG titrated on hNPR1 with Cy5-labeled ANP; negative values mean more ANP signal [Cont.), panel XX06]
T1 construct: hNPR1 antigen in the presence of ANP; also called hNPR1 + 100 nM ANP
T1 sequence: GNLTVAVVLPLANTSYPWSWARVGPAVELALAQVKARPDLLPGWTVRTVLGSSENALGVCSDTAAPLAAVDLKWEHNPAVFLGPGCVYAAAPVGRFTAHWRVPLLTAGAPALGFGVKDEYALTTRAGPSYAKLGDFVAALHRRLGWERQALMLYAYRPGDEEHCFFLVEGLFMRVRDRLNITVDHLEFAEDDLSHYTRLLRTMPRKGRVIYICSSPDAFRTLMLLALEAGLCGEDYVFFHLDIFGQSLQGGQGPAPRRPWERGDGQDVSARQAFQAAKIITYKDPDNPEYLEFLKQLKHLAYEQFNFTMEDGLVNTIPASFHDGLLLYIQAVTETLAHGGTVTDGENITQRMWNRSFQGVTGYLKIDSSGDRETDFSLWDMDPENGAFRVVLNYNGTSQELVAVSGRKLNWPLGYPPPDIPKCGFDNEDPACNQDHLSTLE
T1 sequence (peptide): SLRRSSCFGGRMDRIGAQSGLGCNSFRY
Method: The same 31 IgGs were tested for ANP competition using a Fluorescence Resonance Energy Transfer (FRET)-based assay in which the NPR1-specific antibodies competed with ANP for binding to NPR1. In this FRET based assay (see FIG. 3), Eu-labeled Streptavidin (for measurement of IgGs) or Eu-labeled anti-hFc antibody (for measurement of FabCys) was used as an energy donor, while Cy5-labeled ANP was used as an acceptor (for all measurements). The resulting fluorescent signal was decreased by ANP-competitive antibodies. The assay was performed as follows: antibodies were mixed with NPR1 and incubated for 5 minutes at room temperature. After addition of the Eu-labeled donor and incubation for 30 minutes at room temperature, the Cy5-ANP solution was added. After a further 60-minute incubation, readout was performed using a TECAN Infinite M1000 Pro using an excitation wavelength of 317 nm and an emission wavelength of 665 nm. Percentage of ANP competition was calculated according to the following formulae: […]

[2] = target: T2, human NPR1 on CHO-K1 cells in the presence of ANP (human, UniProt P01160 124-151); assay: flow cytometry (FL2-H) on hNPR1 CHO-K1 cells with saturating ANP, IgG titrated; control parental CHO-K1 [Cont.), panel XX06]
T2 construct: also called hNPR1 CHO K1 + 100 nM ANP
T2 sequence: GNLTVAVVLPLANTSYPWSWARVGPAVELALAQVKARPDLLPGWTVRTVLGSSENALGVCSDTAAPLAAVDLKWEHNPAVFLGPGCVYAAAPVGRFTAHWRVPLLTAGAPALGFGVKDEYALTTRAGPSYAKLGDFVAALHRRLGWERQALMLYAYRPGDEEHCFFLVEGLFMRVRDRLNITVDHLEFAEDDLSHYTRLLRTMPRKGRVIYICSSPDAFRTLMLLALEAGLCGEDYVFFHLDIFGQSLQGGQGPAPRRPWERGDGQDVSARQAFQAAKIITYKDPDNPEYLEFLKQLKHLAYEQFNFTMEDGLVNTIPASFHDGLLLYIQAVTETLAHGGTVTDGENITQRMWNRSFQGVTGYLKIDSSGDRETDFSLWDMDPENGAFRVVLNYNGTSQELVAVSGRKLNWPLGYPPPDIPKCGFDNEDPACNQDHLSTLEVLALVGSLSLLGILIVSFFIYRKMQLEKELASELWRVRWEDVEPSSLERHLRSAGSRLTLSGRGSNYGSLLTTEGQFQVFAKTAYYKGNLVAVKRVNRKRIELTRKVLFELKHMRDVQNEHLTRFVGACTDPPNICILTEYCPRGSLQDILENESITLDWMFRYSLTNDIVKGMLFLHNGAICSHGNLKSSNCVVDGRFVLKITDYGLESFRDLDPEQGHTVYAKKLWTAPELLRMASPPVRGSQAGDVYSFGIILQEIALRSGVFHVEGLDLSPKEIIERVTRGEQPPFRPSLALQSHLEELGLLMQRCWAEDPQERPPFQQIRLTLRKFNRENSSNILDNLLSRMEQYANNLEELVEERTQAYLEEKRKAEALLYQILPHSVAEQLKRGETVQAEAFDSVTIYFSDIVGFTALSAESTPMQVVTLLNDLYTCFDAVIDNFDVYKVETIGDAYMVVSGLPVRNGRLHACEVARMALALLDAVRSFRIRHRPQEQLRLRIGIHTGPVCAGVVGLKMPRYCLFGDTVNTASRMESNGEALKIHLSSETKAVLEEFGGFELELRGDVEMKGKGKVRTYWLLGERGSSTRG
T2 sequence (peptide): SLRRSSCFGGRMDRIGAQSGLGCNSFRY

[3] = target: T3, human NPR3 in the presence of ANP (human, UniProt P17342 27-481; P01160 124-151, limits assumed); assay: ELISA, IgG titrated on coated antigen with ANP (250 fold molar excess), fluorescence [Cont.]
T3 construct: also called hNPR3 + 100 nM ANP
T3 sequence (looked up): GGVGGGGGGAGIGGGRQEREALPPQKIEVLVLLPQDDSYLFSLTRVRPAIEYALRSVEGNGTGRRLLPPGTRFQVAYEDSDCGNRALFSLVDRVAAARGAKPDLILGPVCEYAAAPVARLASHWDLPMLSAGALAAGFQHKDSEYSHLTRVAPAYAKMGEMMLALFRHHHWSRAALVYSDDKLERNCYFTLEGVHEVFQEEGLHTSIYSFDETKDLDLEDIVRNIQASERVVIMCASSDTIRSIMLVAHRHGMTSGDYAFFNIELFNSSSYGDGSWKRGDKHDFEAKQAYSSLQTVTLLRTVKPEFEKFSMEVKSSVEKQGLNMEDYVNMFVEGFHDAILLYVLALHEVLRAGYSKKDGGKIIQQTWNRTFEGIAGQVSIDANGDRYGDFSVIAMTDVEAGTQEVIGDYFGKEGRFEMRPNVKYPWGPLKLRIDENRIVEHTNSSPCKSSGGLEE
T3 sequence (peptide, looked up): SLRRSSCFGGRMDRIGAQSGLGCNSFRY

[4] = target: T4, human NPR3 (counter target) (human, UniProt P17342 27-481, limits assumed); assay: ELISA, IgG titrated on coated antigen, fluorescence [Cont.]
T4 construct: Pannings used hNPR3-hFc; also called hNPR3; hNPR3-hFc
T4 sequence (looked up): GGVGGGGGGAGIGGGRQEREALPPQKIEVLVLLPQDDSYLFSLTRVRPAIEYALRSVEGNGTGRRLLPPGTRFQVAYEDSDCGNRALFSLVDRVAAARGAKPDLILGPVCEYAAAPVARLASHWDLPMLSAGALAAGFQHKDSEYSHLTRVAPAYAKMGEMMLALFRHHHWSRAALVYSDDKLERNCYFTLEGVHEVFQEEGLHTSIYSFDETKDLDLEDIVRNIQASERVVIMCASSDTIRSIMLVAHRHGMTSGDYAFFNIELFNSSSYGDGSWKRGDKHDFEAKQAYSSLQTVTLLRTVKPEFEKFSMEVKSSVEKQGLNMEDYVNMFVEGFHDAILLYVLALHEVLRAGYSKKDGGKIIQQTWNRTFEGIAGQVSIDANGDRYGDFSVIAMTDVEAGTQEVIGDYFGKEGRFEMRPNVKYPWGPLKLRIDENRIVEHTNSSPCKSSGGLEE
Method: Furthermore, the clones were tested via ELISA for binding to the following antigens: human NPR1, constitutively active human NPR1 mutant (W74R), rat NPR1, human NPR3 (counter target), each in the absence and presence of ANP, and BSA. The clones were also analyzed by flow cytometry for binding to human NPR1 expressing CHO K1 cells in absence and presence of ANP (100 nM) and to parental CHO K1 cells.

- EC50 (read off the curve) [1]: ~0.2 nM
- EC50 (read off the curve) [2]: ~2 nM
- binding result [3]: no binding (tested: 200 nM)
- binding result [4]: no binding (tested: 200 nM)
B1: XX06 (IgG format) (antibody, V domains shown)
VH: QVQLLESGGGLVQPGGSLRLSCAASGFTFSSYWMNWVRQAPGKGLEWVSAISSDGSYTYYADSVKGRFTISRDNSKNTLYLQMNSLRAEDTAVYYCARDRYSMIYSYGAGAFDYWGQGTLVTVSS
VL: DIQMTQSPSSLSASVGDRVTITCRASQGISSYLAWYQQKPGKAPKLLIYTASTLQSGVPSRFSGSGSGTDFTLTISSLQPEDFATYYCQQTWRKPRTFGQGTKVEIK
